Assay: yeast display, Sf9 membrane polyspecificity reagent, FACS + sequencing; frameworks hold sequencing errors
Summary of the method: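 After 36–48 hours of galactose induction, yeast (Saccharomyces cerevisiae BJ5465) displaying a synthetic nanobody library were stained at 4 °C for 1 hour with 10% biotinylated, detergent-solubilized Sf9 membrane reagent. Streptavidin microbeads enriched the stained cells before FACS sorting into low and high (top ~1%) gates on anti-HA and streptavidin fluorescence. Each clone's polyreactivity label reflects its gate of origin.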

| Sequence | polyreactivity (PSR sort gate) |
| --- | --- |
| QVQLVESGGGLVQAGGSLRLSCAASGRTFLGYSMGWYRQAPAKERELVAAISGSCDRTYYADSVKGRFTISRDNAKHTVYLQMYSLKPEYTEVYYCNAVTVRYYASYYGRGMDYWGQGTQETVSS | high polyreactivity |
| QVQLVESGGGLVQAGGSLRLSCAASGRTFLGYTMGWYRQAPGKEREFVAAITFSGDSTYYADSVKGRFTISRDNAKNTVYLQMNSLKPEDTAVYYCAARKKYYTYLFYYWGQGTQVTVSS | high polyreactivity |
| QVQLVESGGGLVQAGGSLRLSCAASGRTFLHNAMGWYRQAPGKERELVAAITWSGGSTYYADSVKGRFTISRDNAKNTVYLQMNSLKPEDTAVYYCNARHRYYRYGYWGQGTQVTVSS | high polyreactivity |
| QVQLVESGGGLVQAGGSLRLSCAASGRTFLINAMGWYRQAPGKERELVADITGRGSSTYYADSVKGRFTISRDNAKNTVYLQMNSLKPEDTAVYYCNAVLRKITYDYWGQGTQVTVSS | high polyreactivity |
| QVQLVESGGGLVQAGGSLRLSCAASGRTFLIYAMGWYRQAPGKEREFVATITYSGGSTYYADSVKGRFTISRDNAKNTVYLQMNSLKPEDTAVYYCAAVRYGYRRSGPYNYSYDYWGQGTQVTVSS | high polyreactivity |
| QVQLVESGGGLVQAGGSLRLSCAASGRTFLIYAMGWYRQAPGKERELVAAITSGGRTKYADSVKGRFTISRDNAKYTVYLQMNSLKPEDTAVYYCAARTGVYRYSRKFDYWGQGTQVTVSS | high polyreactivity |
| QVQLVESGGGLVQAGGSLRLSCAASGRTFLLNAMGWSRQAPGKERELVAAITRSGVITYYADSVKGRFTISRDNAKNTVYLQMNSLKPEDTAVYYCAAQLRYSYLRPSYYYWGQGTQVTVSS | high polyreactivity |
| QVQLVESGGGLVQAGGSLRLSCAASGRTFLLYAMGWYRQAPGKERELVAAIRSSTVSTYYADSVKGRFTISRDNAKNTVYLQMNSLKPEDTAVYYCAASRPKYGPSGVHYNYWGQGTQVTVSS | high polyreactivity |
| QVQLVESGGGLVQAGGSLRLSCAASGRTFLLYAMGWYRQAPGKERELVAAITRGGRTNYADSVKGRFTISRDNAKNTVYLQMNSLKPEDTAVYYCAARYVERHTDYYYWGQGTQVTVSS | low polyreactivity |
| QVQLVESGGGLVQAGGSLRLSCAASGRTFLNYAMRWNRQAPVKERELVAAITDGDSTNYADSVKGRFTISRDNAKNTVYLQMNSLKPEDTAVYYCNAPSLAYRYYYWGQGTQVTVSS | high polyreactivity |
| QVQLVESGGGLVQAGGSLRLSCAASGRTFLPNAMGWYRQAPGKERELVAVITSGGSTNYADSVKGRFTISRDNAKNTVYLQMNSLKPEDTAVYYCASRRWSSSQGHWGKSAGYGYWGQGTQVTVSS | low polyreactivity |
| QVQLVESGGGLVQAGGSLRLSCAASGRTFLPNDMGWSIQAPGKERELVAAITDSGGDTYYADSVKGRFTISRDNAKNTVYLQMNSLKPEDTAVYYCAADYYYYGSYYPVEYWGQGTQVTVSS | high polyreactivity |
| QVQLVESGGGLVQAGGSLRLSCAASGRTFLRNAMGWYRQAPGKERELVAAISSGGGRTYYADSVKGRFTISRDNAKNTVYLQMNSLKPEDTAVYYCAALYQYLGGVYEGYYWGQGTQVTVSS | high polyreactivity |
| QVQLVESGGGLVQAGGSLRLSCAASGRTFLRNAMGWYRQAPGKERELVATISWGGGSTYYADSVKGRFTISRDNAKNTVYLQMNSLKPEDTAVYYCAKQRAWSGFDYWGQGTQVTVSS | high polyreactivity |
| QVQLVESGGGLVQAGGSLRLSCAASGRTFLRYAMGWYRQAPGKERELVAAISSRGGSTYYADSVKGRFTISRDNAKNTVYLQMNSLKPEDTAVYYCAADTYYTRYYYWGQGTQVTVSS | high polyreactivity |
| QVQLVESGGGLVQAGGSLRLSCAASGRTFLRYAMGWYRQAPGKERELVAAISSRGGSTYYADSVKGRFTISRDNAKNTVYLQMNSLKPEDTAVYYCAARFLHYYPTRGYTYDYWGQGTQVTVSS | high polyreactivity |
| QVQLVESGGGLVQAGGSLRLSCAASGRTFLRYAMGWYRQAPGKERELVAAITYGGRTNYADSVKGRFTISRDNAKNTVYLQMNSLKPEDTAVYYCAADRTYYYGLRVDYWGQGTQVTVSS | high polyreactivity |
| QVQLVESGGGLVQAGGSLRLSCAASGRTFLTYVMGWYRQAPWKERELVAAITRGGRTNYADSVKGRFTISRDNAKNTVYLQMNSLKPEDTAVYYCARDDTPRYDYWGQGTQVTVSS | low polyreactivity |
| QVQLVESGGGLVQAGGSLRLSCAASGRTFLVNAMGRYREAPGKVREFVAAITSRSGRTNYADSVKGRFTISRDNAKNTLYLQMNRLQPEDTAVYYCNAEGYTVKYWYSRYDYWGQGTQVTVSS | high polyreactivity |
| QVQLVESGGGLVQAGGSLRLSCAASGRTFLVYALGWYRQAPGKERELVAGITSGGGTYYADSVKGRFTISRDNAMNTVYLQINSLKPEETAVYYCAKYRWYGVYWGQVTQVTVSS | low polyreactivity |
| QVQLVESGGGLVQAGGSLRLSCAASGRTFLWNAMGWYRQAPGKERELVAAISISGGNTNYADSVKGRFTISRDNAKNTVYLQINSLKPEDTAVYYCNADPRAEPGDWSYEMDYWGQGTQVTVSS | low polyreactivity |
| QVQLVESGGGLVQAGGSLRLSCAASGRTFLWYAMGWYRQAPGKEREFVAAITSSGGDTYYADSVKGRFTISRDNAKNTVYLQMNSLKPADTAVYYCAARTRKWFDYAIHYYWGQGTQVTVSS | low polyreactivity |

| Sequence | polyreactivity (PSR sort gate) |
| --- | --- |
| QVQLVESGGGLVQAGGSLRLSCAASGRTFLYNAMGWYRQAPGKERELVAAISWSGGSTYYADSVKGRFTISRDNAKNTVYLQMNSLKPEDTAVYYCAAYWVWPGRYWYDYWGQGTQVTVSS | high polyreactivity |
| QVQLVESGGGLVQAGGSLRLSCAASGRTFLYNAMGWYRQAPGKERELVASLTRRGGTTYYADSVKGRFTISRDFAKNNVYFQMISLKPEVTAVYYCNAQPGISYYYYGHWYGYWGQGTQVTVSS | high polyreactivity |
| QVQLVESGGGLVQAGGSLRLSCAASGRTFLYNAMGWYSQATWKERELVASITRRGGTTYYADSVKGRFTISRDNAKNTVYLQMNSLKPEDTAVYYCNAQPGISYYYYGHWYGYWGQGTQVTVSS | high polyreactivity |
| QVQLVESGGGLVQAGGSLRLSCAASGRTFLYYAMGWYRQAPGKERELVAAISSGGRTNYADSVNGRFTISRDNAKNTVYLQMNSRKPEDTAVYYCAVRRGAFSTYPGYNYWGQGTQVTVSS | high polyreactivity |
| QVQLVESGGGLVQAGGSLRLSCAASGRTFNFNVMGWYRQAPGKESQLVAAISKSTGSTFYADSVKGRFTISRDNAKNTVYLQMNSLKPEDTAVYYCNAVRCYGSGRGYGYCGQGTQVTVSS | high polyreactivity |
| QVQLVESGGGLVQAGGSLRLSCAASGRTFNIYAMGWYRQAPGKERELVAAITWRSGSTYYADSVKGRFTISRDNAKNTVYLQMNSLKPEDTAVYYCAAEQWSSVPEFDYWGQGSQVTVSS | high polyreactivity |
| QVQLVESGGGLVQAGGSLRLSCAASGRTFNRYAMGWYRQAPGKERELVAAINWSGGSTYYADSVKARFTISRDIAKTTVYLPMNSLKPEDTAVYYCAADVWGWGLRPYDYWGQGTQVTVSS | low polyreactivity |
| QVQLVESGGGLVQAGGSLRLSCAASGRTFNRYGMGWYRQAPGKERELVASITSGGSTNYADSVKGRFTISRDNAKNSVYLQMNSLKPEDTAVYYCAKRSIGRYPRTYDYWGQGTQVTVSS | low polyreactivity |
| QVQLVESGGGLVQAGGSLRLSCAASGRTFNTNAMGWYRQAPGKERELVAAISGSGVRTYYADSVKGRFTISRDNAKNTVYLQMNSLKPEDTAVYYCAARGQGGPYNYWGQGTQVTVSS | high polyreactivity |
| QVQLVESGGGLVQAGGSLRLSCAASGRTFNYNAMGWYRQAPGTERELVAAINYNGGSTYYADSVKGRFTISRDNAKNTVYLQMNSLKPEDTAVYYCAADQSTVLDVGSWGQGTQVTVSS | low polyreactivity |
| QVQLVESGGGLVQAGGSLRLSCAASGRTFNYYAMGWYRQAPGKERELVAAISSGGSTDYADSVKGRFTISRDNAKNTVYLQMNSMKPEDTAVYYCNAESYPGWAYFAYDYQFDYWGQGTQVTVSS | low polyreactivity |
| QVQLVESGGGLVQAGGSLRLSCAASGRTFNYYVMGWFRQAPGKERELVATINWSGGSTYYADSVKGRFTISRDNAKNTVYLQMNSLKPEDTAVYYCAARWFYHRNHNRNYWGQGTQVTVSS | high polyreactivity |
| QVQLVESGGGLVQAGGSLRLSCAASGRTFPANTMGWYRPAPGKERELVAAISSRGGSTYYADSVKGRFTISRDNAKKTVYLQMNSLKPEDTAVYYCNAYLYFPRYDYWGQGTQVTVSS | high polyreactivity |
| QVQLVESGGGLVQAGGSLRLSCAASGRTFPAYAMGWYRQAPGKERELVARISYSGGNTYYADSVKGRFTISRDNAKNTVYLQMNSLKPEDTAVYYCAATRSHYPYRSGGDYWGQGTQVTVSS | low polyreactivity |
| QVQLVESGGGLVQAGGSLRLSCAASGRTFPFYAMGWYRQAPGKERELVASISRSTGRTYYADSVKGRFTISRDNAKNTVYLQMNSLKPEDTAVYYCAKSGGSSQYWYGYWGQGTQVTVSS | high polyreactivity |
| QVQLVESGGGLVQAGGSLRLSCAASGRTFPFYAMGWYRQAPVKEREFVAAITASGDSTYYADSVKGRFTISRDNAKYTVYLQMNSLKPEDTAVYYCAADLPVWYVTRYDYWGQGTQVTVSS | low polyreactivity |
| QVQLVESGGGLVQAGGSLRLSCAASGRTFPGNAMGGDKQAPGKERELVASINGRTTRTYYADSVKGRFTISRDNAKNTVYLQMTSLKPEDTAVYYCAADPPGYVYGKRYYWGQGTQVTVSS | high polyreactivity |
| QVQLVESGGGLVQAGGSLRLSCAASGRTFPGNAMGWYRQAPGKERELVAAINSGGSTYYADSVKGRFTISRDNAKNTVYLQMNSLKPEDTAVYYSAAYFGHYWRYYYWGQGTQVNVSS | high polyreactivity |
| QVQLVESGGGLVQAGGSLRLSCAASGRTFPGYAMGWYRQAPGKARELVAGISYRGGSTYYADSVKGRFTISRDNAKNTVYLQLNSLKPEDTAVYYCARDYSRHKGDYWGQGTQVTVSS | low polyreactivity |
| QVQLVESGGGLVQAGGSLRLSCAASGRTFPGYAMGWYRQAPGKERELVAAITSSGDDTYYADSVKGRFTISRDNAKNTVYLQMNSLKPEDTAVYYCRLFRRSADSSYDYEYWGQGTQVTVSS | low polyreactivity |
| QVQLVESGGGLVQAGGSLRLSCAASGRTFPGYAMGWYRQAPGKERELVATITLSDGSTYYADSVKGRFTISRDNAKTTVYLQMNSLKPEDTAVYYCNARRSYFLRYGVNYWGQGTQVTVSS | low polyreactivity |

Reference: the nanobody polyreactivity screen of Harvey et al. (2022)
